Results from article doi:10.1101/2024.12.02.626349.

Biological target: endogenous UBR4 tagged with FLAG at the UBR4 locus (human (endogenous in HEK293T)) (UniProt Q5T4S7)
Assay: cryo-EM structure

Sequence of endogenous UBR4 tagged with FLAG at the UBR4 locus (Q5T4S7 whole entry): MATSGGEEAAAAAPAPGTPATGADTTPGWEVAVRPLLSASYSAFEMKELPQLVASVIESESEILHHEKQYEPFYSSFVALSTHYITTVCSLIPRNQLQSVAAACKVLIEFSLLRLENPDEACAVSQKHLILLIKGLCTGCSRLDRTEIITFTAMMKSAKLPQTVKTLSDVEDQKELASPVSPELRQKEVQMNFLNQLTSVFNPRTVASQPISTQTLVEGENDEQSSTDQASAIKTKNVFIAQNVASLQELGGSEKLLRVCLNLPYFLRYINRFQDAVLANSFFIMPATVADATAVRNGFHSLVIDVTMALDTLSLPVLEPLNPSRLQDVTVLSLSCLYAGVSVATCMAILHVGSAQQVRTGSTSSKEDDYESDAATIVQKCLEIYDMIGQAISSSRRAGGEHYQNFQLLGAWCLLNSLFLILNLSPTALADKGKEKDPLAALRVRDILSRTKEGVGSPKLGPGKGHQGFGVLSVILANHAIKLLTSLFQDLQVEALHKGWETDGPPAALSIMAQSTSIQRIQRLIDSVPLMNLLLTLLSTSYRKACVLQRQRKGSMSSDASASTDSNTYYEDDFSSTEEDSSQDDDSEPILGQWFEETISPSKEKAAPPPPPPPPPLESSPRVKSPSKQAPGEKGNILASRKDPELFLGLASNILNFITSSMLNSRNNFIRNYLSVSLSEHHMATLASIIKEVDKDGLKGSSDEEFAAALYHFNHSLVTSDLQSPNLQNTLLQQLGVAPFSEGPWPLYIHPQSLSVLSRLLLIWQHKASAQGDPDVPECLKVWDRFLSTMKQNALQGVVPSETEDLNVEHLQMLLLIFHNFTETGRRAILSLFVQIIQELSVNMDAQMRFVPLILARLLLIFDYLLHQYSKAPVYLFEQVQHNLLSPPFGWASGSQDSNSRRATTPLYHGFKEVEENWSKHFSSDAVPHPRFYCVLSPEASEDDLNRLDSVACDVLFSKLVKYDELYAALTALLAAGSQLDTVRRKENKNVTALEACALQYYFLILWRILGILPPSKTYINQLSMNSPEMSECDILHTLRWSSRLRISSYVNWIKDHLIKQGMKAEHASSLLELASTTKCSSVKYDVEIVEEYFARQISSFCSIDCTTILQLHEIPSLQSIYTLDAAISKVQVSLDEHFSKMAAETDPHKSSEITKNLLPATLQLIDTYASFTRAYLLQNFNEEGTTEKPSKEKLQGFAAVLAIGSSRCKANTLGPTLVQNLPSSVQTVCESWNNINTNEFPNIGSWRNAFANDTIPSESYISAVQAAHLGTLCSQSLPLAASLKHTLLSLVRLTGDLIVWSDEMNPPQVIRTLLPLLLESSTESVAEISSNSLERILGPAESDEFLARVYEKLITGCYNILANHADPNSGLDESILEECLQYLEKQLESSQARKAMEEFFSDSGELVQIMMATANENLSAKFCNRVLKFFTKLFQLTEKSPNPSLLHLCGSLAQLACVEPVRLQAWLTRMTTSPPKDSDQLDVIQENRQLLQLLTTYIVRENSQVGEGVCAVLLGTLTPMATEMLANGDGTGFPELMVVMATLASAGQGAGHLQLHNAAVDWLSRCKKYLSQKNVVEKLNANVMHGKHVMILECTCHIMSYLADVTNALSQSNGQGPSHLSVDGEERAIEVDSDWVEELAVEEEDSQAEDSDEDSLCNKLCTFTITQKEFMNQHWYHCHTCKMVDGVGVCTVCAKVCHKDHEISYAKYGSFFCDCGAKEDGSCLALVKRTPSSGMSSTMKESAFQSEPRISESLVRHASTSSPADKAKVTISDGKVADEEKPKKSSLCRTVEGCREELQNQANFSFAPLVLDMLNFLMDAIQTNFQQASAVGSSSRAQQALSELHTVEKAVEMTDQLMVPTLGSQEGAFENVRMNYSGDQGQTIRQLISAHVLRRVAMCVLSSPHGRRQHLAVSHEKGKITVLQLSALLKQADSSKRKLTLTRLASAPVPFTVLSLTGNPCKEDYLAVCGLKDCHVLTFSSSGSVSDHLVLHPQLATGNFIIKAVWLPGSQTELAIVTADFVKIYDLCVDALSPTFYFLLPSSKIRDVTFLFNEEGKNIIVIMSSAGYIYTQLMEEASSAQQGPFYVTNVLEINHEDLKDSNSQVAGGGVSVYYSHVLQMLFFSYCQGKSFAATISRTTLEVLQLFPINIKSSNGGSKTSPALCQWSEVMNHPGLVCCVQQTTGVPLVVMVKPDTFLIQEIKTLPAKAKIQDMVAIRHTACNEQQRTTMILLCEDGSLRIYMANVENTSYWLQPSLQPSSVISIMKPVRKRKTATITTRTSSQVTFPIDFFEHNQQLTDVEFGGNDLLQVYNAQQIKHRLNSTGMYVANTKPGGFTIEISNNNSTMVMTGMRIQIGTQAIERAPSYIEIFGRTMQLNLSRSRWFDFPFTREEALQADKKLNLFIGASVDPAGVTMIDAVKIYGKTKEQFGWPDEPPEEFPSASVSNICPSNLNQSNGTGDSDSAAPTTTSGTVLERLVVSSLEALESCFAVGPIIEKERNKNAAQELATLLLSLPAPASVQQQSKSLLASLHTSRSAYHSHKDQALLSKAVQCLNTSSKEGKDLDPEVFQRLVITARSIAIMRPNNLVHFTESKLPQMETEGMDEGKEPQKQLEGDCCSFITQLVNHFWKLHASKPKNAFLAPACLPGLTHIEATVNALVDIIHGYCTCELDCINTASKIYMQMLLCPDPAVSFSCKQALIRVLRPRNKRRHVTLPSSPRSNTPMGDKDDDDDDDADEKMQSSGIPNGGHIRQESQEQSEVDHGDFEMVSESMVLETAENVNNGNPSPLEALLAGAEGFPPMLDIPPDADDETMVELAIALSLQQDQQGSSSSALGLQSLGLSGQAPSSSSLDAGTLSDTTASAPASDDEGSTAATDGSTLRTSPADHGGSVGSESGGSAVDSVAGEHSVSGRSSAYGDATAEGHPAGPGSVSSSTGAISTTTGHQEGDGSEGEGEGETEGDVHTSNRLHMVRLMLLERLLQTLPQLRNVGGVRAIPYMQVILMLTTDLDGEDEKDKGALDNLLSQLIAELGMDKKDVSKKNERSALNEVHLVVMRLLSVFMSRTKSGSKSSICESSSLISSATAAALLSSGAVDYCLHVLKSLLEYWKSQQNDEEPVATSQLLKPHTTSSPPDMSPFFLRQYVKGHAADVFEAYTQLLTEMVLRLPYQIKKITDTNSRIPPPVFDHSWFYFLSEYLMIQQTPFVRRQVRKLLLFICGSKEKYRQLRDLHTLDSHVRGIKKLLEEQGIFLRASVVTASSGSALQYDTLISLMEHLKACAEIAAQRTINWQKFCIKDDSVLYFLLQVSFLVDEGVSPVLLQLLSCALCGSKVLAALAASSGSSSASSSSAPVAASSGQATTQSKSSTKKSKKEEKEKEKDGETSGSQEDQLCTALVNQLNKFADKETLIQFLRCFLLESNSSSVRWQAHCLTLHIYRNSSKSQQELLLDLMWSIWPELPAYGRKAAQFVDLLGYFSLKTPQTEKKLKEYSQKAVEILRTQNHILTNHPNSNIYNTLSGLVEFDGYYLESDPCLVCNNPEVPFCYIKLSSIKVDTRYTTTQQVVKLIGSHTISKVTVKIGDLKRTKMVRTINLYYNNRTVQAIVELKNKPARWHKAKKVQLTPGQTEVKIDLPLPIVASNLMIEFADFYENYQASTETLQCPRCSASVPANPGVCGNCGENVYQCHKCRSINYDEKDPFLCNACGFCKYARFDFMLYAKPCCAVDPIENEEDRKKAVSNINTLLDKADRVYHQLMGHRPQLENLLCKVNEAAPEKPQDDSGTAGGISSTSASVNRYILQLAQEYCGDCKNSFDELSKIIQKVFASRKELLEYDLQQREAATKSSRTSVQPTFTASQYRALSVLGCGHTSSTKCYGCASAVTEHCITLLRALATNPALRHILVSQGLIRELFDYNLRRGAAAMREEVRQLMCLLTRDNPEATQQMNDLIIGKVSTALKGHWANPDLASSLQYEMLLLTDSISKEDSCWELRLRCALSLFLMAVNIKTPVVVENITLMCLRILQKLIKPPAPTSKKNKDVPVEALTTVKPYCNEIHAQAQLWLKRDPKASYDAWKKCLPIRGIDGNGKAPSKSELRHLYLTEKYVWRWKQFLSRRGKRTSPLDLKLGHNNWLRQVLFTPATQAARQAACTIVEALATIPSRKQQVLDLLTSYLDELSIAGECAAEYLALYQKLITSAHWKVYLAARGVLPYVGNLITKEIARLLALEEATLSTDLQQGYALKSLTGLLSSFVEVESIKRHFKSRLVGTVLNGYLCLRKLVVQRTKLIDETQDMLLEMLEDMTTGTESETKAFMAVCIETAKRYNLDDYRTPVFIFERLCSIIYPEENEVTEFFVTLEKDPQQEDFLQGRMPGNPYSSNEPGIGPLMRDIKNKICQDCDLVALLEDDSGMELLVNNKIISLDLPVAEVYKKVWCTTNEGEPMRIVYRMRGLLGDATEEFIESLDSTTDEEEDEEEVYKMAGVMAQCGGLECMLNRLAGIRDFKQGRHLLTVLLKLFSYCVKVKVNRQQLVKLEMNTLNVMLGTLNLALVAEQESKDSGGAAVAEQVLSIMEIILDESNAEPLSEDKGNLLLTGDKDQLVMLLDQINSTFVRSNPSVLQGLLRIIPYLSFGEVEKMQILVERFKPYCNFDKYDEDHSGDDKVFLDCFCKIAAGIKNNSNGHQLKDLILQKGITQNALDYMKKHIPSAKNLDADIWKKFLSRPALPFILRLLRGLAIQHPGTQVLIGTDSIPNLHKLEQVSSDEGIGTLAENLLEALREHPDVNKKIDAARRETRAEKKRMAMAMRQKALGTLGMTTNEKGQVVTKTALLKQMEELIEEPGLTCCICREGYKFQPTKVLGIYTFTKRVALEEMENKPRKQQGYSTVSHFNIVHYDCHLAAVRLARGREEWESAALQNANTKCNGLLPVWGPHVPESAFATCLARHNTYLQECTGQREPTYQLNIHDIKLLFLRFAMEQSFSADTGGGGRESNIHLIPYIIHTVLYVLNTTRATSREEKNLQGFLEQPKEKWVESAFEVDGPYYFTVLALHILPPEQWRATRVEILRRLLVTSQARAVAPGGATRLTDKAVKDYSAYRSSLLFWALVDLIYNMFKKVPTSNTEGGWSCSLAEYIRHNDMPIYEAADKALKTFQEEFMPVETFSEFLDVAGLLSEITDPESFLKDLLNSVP

stoichiometry N: 2
Substance: endogenous UBR4 tagged with FLAG at the UBR4 locus (from UniProt Q5T4S7-1 1-5183) (natural protein)
